The target of test [1] is T1, APOL1 peptide aa 364-385 (human).
T1 peptide: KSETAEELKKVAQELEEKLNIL
Briefly: overlapping ~20-mer peptides (SPR, western blot). How it is done:
(§1) Following three TBST washes, anti-mouse (GE Healthcare NA931V, 1:3000) or anti-rabbit HRP (Jackson 711-036-152, 1:8000) was added as secondary antibody. After 1 h, membranes were washed and protein detected using ECL prime (Amersham RPN2232) exposed to MR film (Kodak). Anti-actin HRP-conjugated antibody (clone 13E5, Cell Signaling Technologies 5125S at 1:5000) or calnexin (Abcam Ab22595 at 1:1000) was used as a loading control. For peptide mapping, 2 μl of 1 mM peptides in DMSO were boiled in 5× sample buffer and loaded on 10% Tris-Glycine gel and run using MES buffer. Cell pellets of Sf9 lysates were lysed in native RIPA (NP-40) lysis buffer and run on 10% Tris-Glycine gels.
A 96×96 array-based SPR imaging system (Carterra USA) was used for epitope mapping of anti-ApoL1 monoclonal antibodies. Briefly, purified monoclonal hybridoma antibodies were diluted at 10 μg/ml in 10 mM sodium acetate buffer pH 4.5. Using amine coupling, antibodies were directly immobilized onto a SPR sensorprism CMD 200M chip (XanTec Bioanalytics, Germany) using a Continuous Flow Microspotter (Carterra, USA) to create an array of antibodies. After coupling, the antibodies were blocked with ethanolamine, and primed with running buffer (10 mM HEPES, pH 7.4, 150 mM NaCl, 3 mM EDTA, and 0.005% Tween 20). […]
(Immunoblotting shows a protein as a band on a membrane.)

Test [2] has as its target T2, endogenous human APOL1 (wild-type immortalized podocytes; also JHH-1 cells, kidney and liver tissue) (human, UniProt O14791 28-398).
T2 construct: whole, on cells; Cell or tissue and permeabilization are told under assay; also called podocyte APOL1; endogenous APOL1
T2 sequence (looked up): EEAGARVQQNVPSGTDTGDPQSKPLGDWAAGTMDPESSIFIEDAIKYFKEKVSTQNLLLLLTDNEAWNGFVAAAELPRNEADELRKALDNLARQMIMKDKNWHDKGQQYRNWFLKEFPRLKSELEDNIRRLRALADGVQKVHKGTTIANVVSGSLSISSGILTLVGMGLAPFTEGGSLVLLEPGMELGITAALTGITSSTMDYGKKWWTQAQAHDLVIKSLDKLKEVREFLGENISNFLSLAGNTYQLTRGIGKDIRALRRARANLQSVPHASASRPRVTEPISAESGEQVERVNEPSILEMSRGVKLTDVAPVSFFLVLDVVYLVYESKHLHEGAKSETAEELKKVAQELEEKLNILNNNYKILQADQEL
Description: flow cytometry, live WT and iAPOL1-G0 podocytes. The protocol: (§2) Cells were harvested with 5 mM EDTA in PBS, washed once with growth media and twice with PBS. Approximately 0.5×10⁶/m1 of cells resuspended in PBS were incubated with anti-APOL1 antibodies for 1 h on ice. Following two PBS washes, 2 μg/ml of Alexa488 anti-mouse or anti-rabbit (Invitrogen A11029 and A21206, respectively) was used for 1 h on ice for detection. Cells were washed twice in PBS and resuspended in PBS with 1 μg/ml propidium iodide. Signals were read in a FACSCalibur3 (Becton Dickinson), with the exception of FIG. 8A and FIG. 14, which used a FACSCelesta, and data was analyzed using FlowJo v8.4.5. Mean fluorescence intensities were plotted in PRISM v7 after subtraction of secondary antibody alone background. For low pH experiments, cells were incubated with the antibodies in the presence of PBS pH 7.0 or PBS pH 5.5 for an hour on ice and detected with secondary antibodies at neutral pH.
More importantly, there were also differential APOL1 accessibilities between serum APOL1 and kidney disease-relevant podocytes (FIG. 18B). Some antibodies bound surface APOL1 in WT and iAPOL1 podocytes (FIG. 6A, 6B), but not circulating APOL1 (as judged by lack of trypanolytic blockade, FIG. 6C) and vice versa. […] Conversely, 3.3B6 and 4.17A5 were among the top trypanolytic blockers, but recognized the podocyte surface relatively weakly. […]
For orientation: Flow cytometry measures light scatter and fluorescence of single cells or particles in a stream.

The target of test [3] is T2, endogenous human APOL1 (wild-type …). Briefly: summary of the Examples: podocyte flow cytometry. The protocol: as §2
Test [4] concerns the target T3, APOL1-G2 (deletion of N388 and Y389) (human, UniProt O14791 29-398).
T3 construct: expressed in CHO cells (flow cytometry, lysates), COS cells and podocytes; also called iAPOL1-G2; APOL-G2
T3 sequence: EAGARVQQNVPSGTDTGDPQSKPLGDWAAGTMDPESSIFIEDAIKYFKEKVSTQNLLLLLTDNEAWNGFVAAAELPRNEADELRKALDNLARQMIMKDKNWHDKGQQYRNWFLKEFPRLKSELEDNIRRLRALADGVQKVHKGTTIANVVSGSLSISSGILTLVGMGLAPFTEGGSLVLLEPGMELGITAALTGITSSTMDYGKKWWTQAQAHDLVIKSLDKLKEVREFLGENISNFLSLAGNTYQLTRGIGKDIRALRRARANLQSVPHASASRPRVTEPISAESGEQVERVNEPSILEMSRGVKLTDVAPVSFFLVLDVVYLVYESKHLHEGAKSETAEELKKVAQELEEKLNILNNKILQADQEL
Briefly: flow cytometry, live CHO cells expressing full length native iAPOL1-G2.

In test [5] the target is T4, circulating APOL1 in normal human serum (human, UniProt O14791 28-398).
T4 construct: mature; Serum of healthy volunteers; lipoprotein-associated; also called serum APOL1; HDL APOL1
T4 sequence (looked up): T2 sequence (looked up)
Description: summary of the Examples: trypanolysis blocking as proxy for serum APOL1. How it is done: The trypanolysis assay used herein to text specificity of antibodies for serum APOL1 is as follows. Trypanosoma brucei brucei were obtained from ATCC and cultured in HMI-9 media containing IMDM (Genentech), heat-inactivated (56° C. for 30 min) FBS (Seradigm IXL9/06807/GEN), 1% serum plus (Sigma 14008C), HMI-9 (Genentech) and 1% hypoxanthine (Genentech). Trypanosome lysis was performed by treating 1×10⁵ Trypanosomes with serial dilutions of NHS or recombinant APOL1 for 16 h in a total of 100 μl. Live cell read out was done by the Alamar Blue assay as per the manufacturer's protocol, (Thermo Fisher, DAL1100). Briefly 10 μl of Alamar Blue was added to each well, incubated at 37° C. for 4 h. Red fluorescence, indicating live trypanosomes, was measured on a SpectraMax® fluorimeter powered by SoftMAX® PRO with excitation at 530 nm and emission 590 nm. For the antibody blocking assay, 1% normal human serum was preincubated with 1-10 μg/ml of anti-APOL1 antibody or media at room temperature for 20 minutes followed by addition of trypanosomes. After 16 h, the Alamar Blue assay was performed as above and background values for media only were subtracted and % blocking calculated by normalizing to no antibody control.
Trypanosoma brucei brucei were obtained under MTA from ATCC and cultured in HMI-9 media containing IMDM (Genentech), heat-inactivated (56° C. for 30 min) FBS (Seradigm IXL9/06807/GEN), 1% serum plus (Sigma 14008C), HMI-9 (Genentech) and 1% hypoxanthine (Genentech). Trypanosome lysis was performed by treating 1×10⁵ Trypanosomes with serial dilutions of NHS or recombinant APOL1 for 16 h in a total of 100 μl. Live cell read out was done by the Alamar Blue assay as per the manufacturer's protocol (30) (Thermo Fisher, DAL1100). Briefly 10 μl of Alamar Blue was added to each well, incubated at 37° C. for 4 h. Red fluorescence, indicating live trypanosomes, was measured on a SpectraMax fluorimeter powered by SoftMAX PRO with excitation at 530 nm and emission 590 nm. For the antibody blocking assay, 1% normal human serum was preincubated with 1-10 μg/ml of anti-APOL1 antibody or media at room temperature for 20 mins followed by addition of trypanosomes.

Test [6] deals with T5, APOL1 very C-terminal peptide aa 376-398 (human).
T5 peptide: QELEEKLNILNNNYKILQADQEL
Briefly: overlapping ~20-mer peptides (SPR, western blot); antibody named in paragraph 192. How it is done:
as §1
A 96×96 array-based SPR imaging system (Carterra USA) was used for epitope mapping of anti-ApoL1 monoclonal antibodies. Briefly, purified monoclonal hybridoma antibodies were diluted at 10 μg/ml in 10 mM sodium acetate buffer pH 4.5. Using amine coupling, antibodies were directly immobilized onto a SPR sensorprism CMD 200M chip (XanTec Bioanalytics, Germany) using a Continuous Flow Microspotter (Carterra, USA) to create an array of antibodies. After coupling, the antibodies were blocked with ethanolamine, and primed with running buffer (10 mM HEPES, pH 7.4, 150 mM NaCl, 3 mM EDTA, and 0.005% Tween 20). Epitope mapping was performed by flowing 100 nM of different peptides of APOL1 across the immobilized anti-APOL1 antibodies on the biosensor chip at 25° C. in a running buffer of 10 mM HEPES, pH 7.4, 150 mM NaCl, 3 mM EDTA, and 0.005% Tween 20. After each flow through of the APOL1 peptide, the chip surface was regenerated using 10 mM glycine, pH 2.0.

This is an account of results in patent publication US20230071609A1 (Genentech, published 2023).

B1: antibody 4.29C4 (antibody, V domains shown)
VH: QVQLQQPGAELVRPGASVKLSCKASGYSFANYWMNWVKQRPGQGLEWIGMIHPSDSESRLSQRFKDKATLTVDKSSSTAYMQLNSPTSEDSAVYYCARLDYWGQGTSVTVSS
VL: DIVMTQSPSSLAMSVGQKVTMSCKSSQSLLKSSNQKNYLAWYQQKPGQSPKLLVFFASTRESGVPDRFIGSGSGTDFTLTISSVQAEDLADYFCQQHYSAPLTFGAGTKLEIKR
notes: Mouse mAb, cloned as murine IgG2a LALAPG
For the molecule B1, the binding result in test [1] is “binds”.

B2: antibody 3.3B6 (antibody, V domains shown)
VH: QVQLQQSGAELARPGASVKLSCKASGYTFTSHWMQWLKQRPGQGLEWIGAIYPGDGDTKFTQKFKDKATLTADKSSTTAYMQLSSLASEDSAVYYCARENLYGYYFDYWGQGTTLTVSS
VL: QAVVTQESALTTSPGETVTLTCRSSTGAVTSGNFANWVQEKPDHLFTGLIGGADNRAPGVPARFSGSLIGDKAALIITGAQTEDEAIYFCALWYSDHWVFGGGTKLTVLG
notes: as for B1
In the case of B2, the binding result in test [2] was “binds”.

B3: antibody 4.11H11 (antibody, V domains shown)
VH: EVQVQQSGPELVKPGASMKISCKASGYSFIVYTMNWVKQSHGKNLEWIGLINPYNGGTIYNRKFKGKATLTVDKSSSTAYLELLSLTSEDSAVYYCARGALYRYEGAMDYWGQGTSVIVSS
VL: QIVLSQFPAILSASPGEKVTMTCRASSSVIYVHWYQQKPGSSPKPWIYATSNLASGVPARFSGSGSGTSHSLTISRLEAEDTATYYCQQWSSNPLTFGAGTKLEIKR
notes: as for B1
As to B3, the binding result in test [3] is “binds”; in test [4], “no binding (tested: 5 µg/ml)”; in test [5], “binds”; in test [6] it was “binds”.

B4: antibody 4.11A10 (antibody, V domains shown)
VH: EVQLQQSGPELVKTGASVKISCKASGYSFTGYFMHWVKQSHGKSLEWIGYISCYNGVSVYNQRFKGKATFTIDTSSSTAYMQFNSLTSEDSAVYYCARDVLRYPRYAVDYWGQGTSVTVSS
VL: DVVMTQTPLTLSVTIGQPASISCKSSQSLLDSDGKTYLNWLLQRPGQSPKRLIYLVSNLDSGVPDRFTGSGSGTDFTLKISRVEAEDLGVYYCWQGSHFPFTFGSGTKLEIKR
notes: as for B1
For B4, the binding result in test [3] is listed as “binds”; in test [4], “no binding (tested: 5 µg/ml)”; in test [5], “binds”; in test [6], “binds”.
